# Results reported in the RNAGym collection of RNA variant scans (doi:10.1073/pnas.2313332121).
# This sample holds only a part of the variants without activity.
# B1: TPR 5TU (parent)
# chain: GGAUCUUCUCGAUCUAACAAAAAAGACAAAUCUGCCACAAAGCUUGAGAGCAUCUUCGGAUGCAGAGGCGGCAGCCUUCGGUGGCGCGAUAGCGCCAACGUUCUCAACUAUGACACGCAAAACGCGUGCUCCGUUGAAUGGAGUUUAUCAUG
# Variants of: B1
# Test: polymerase ribozyme fitness, log enrichment relative to wild type (log ratio); higher = more active; in vitro selection for triplet polymerase activity
# How it was run: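 Only genotypes with ≥10 input reads and ≥1 read per output were kept after Illumina sequencing of input and output libraries. These libraries were PCR-built, transcribed mutants of each subunit of a heterodimeric triplet polymerase ribozyme, each put through one triplicate in vitro selection round with frozen incubation at −7 °C, gel excision of extended constructs, streptavidin-bead capture and RT-PCR. Fitness is a logarithmic ratio of genotype enrichment to wild-type enrichment, from inverse-variance-weighted replicate averages, with the logarithm in base 2.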
row,Variant,polymerase ribozyme fitness (log ratio)
1,U15A A17U G65U,≤ -4.2
2,A16G A91G C118U A150U,-3.08
3,U15C C85U,-0.718
4,A16C G92U C105U A107U A110C A138C,≤ -4.2
5,A16U A20C C27U A37U G59C A64C C85U A113G A120U C132U,≤ -4.2
6,A16U C32G A66U C72U C85G,≤ -4.2
7,A16U C87U A89U G140U G143A,≤ -4.2
8,U15C G88A,-3.6
9,U15G G25C A41C U55G C96A U139C G152U,≤ -4.2
10,U15A G42U C87G G94A C99G C125U U148A,≤ -4.2
11,A17C C85G G94A C123A G124U,-1.12
12,A16C C38A C76U,-2.07
13,A17G A20U G84A A97U A115C,-3.45
14,A17C G25C A30G U45A A49C G124U,-4.16
15,A17C A120G,0.31
16,U15A A20C G74C G81A C105G U135G U145G U148A,≤ -4.2
17,A16C A24U G58A G92U,-2.2
18,U15A A19C A23U G46C U53G C57A G68A G71A C93G U111G G141U,≤ -4.2
19,A16G C96A,-0.881
20,A16C A21U G59A G94A A98G,-2.66
21,A16U C18A A22U G48U U56G A66G G84U U144A,≤ -4.2
22,U15C C51A A60U C93A C96G G140A,≤ -4.2
23,U15G A16U C95U A121U U130G,≤ -4.2
24,U15G A24G C35U U55A U77G U90G G94A A97U G140U,≤ -4.2

row,Variant,polymerase ribozyme fitness (log ratio)
1,A16G A20C A22C C32G A66G C118G G126A C132A,≤ -4.2
2,U15G C72U C79A C93U G94U C96A G140A,≤ -4.2
3,A16U C76G G80C,≤ -4.2
4,U15G C38U A41C A52U G59U G65C G141A,≤ -4.2
5,A16G G46U G84A C105U G133C A138G A142G,≤ -4.2
6,C14U G94A C108U A137U,-4.03
7,A16U A19C C85U,-2.05
8,A17C C85U A120G G124U G143C,-3.22
9,U15C C85U G92U G141C U144C,-3.03
10,A16U U31G G50A G58A C85U U104G A106U U134A,≤ -4.2
11,U15G C38U,-0.133
12,A16G C108U G126A,≤ -4.2
13,A17C G83C,-0.317
14,A17C C35U G92A A122G,-2.61
15,U15G U53A C95A,-1.48
16,A16G C57A C85G A121U,-2.53
17,U15G G59A G88A C132U,≤ -4.2
18,U15G C85A,-1.35
19,A16U C54G C87A A98U,≤ -4.2
20,A16U G42A G59A G71A A89G,≤ -4.2
21,A17C G62A C85A,-1.77
22,A16U U61G U77C C85A G92C U144A,≤ -4.2
23,A16U A47C G59A C87G U90A U101A A113G,≤ -4.2
24,A16G U33G A39C G58U U151G,≤ -4.2

row,Variant,polymerase ribozyme fitness (log ratio)
1,A17C A73G C76G U82C C85G,≤ -4.2
2,A16U A41C G42A G65A A66G C87A U90G,≤ -4.2
3,U15G A17U G25A U61G C93G G140U,≤ -4.2
4,A16G A17C A41U U55A C76U C85A,≤ -4.2
5,A17C C93G,-3.8
6,A16U C116A G136A G140C,≤ -4.2
7,A16U G83C C129G A137C U145C,≤ -4.2
8,A16G C99U,-1.33
9,A16G G92U C93U C118U,-2.94
10,U15G C103G U151G,≤ -4.2
11,U15A A142C A147U,-1.65
12,U15C U56G C63U C95A C96A A106G,-1.5
13,U15G A47G C54U C93G C96U U104C A150G,-3.79
14,C14U U45G A47G G48C C69U C76G U109A,≤ -4.2
15,A17C G25C G62U,-3.17
16,A16U C96A,-2.78
17,A17C C105U,1.03
18,U15A A91G G100C,≤ -4.2
19,A16U C51U G86U U104A C108A G124U,≤ -4.2
20,A17C A19C U55A G94A,1.05
21,A17C G86U,-0.8
22,U15C A49G C116A A138U,-3.99
23,C14U G59A C87U U90G C114A,≤ -4.2
24,U15G A39U G50C G70C G88U C105U,≤ -4.2

row,Variant,polymerase ribozyme fitness (log ratio)
1,U15C A22C C118A U144A,-0.0778
2,A16C C27G A49G G50A A60C C79A A91U C105G,≤ -4.2
3,U15G C54G G81A C95U,-2.2
4,A16U A52C,-2.96
5,A16G C85G G86U A89C A107G,≤ -4.2
6,A17C U31G G48A U53A G80C C85U G133U G140U A142U G152U,≤ -4.2
7,A16G A26U G65U C103G A107G C114G,≤ -4.2
8,C14U U146G,-1.34
9,U15G A37U A52C U90C U148G,≤ -4.2
10,U15G G83U,-0.494
11,U15A A22C A40C A60G,0.68
12,A16G C27G A30U U61A A97U G128U,≤ -4.2
13,U15A C76U C99G C105G,≤ -4.2
14,A16U A30U C87A,≤ -4.2
15,A16C A40C G80A G92U A113G U135C G140A,≤ -4.2
16,U15G G48A C116U G152A,-2.5
17,A16G U56C C76A,-0.363
18,A16G C54A C116A G133C,-2.21
19,U15A A28U G34A A47U C96U G117A,≤ -4.2
20,A17C C54A C87A C114U,≤ -4.2
21,A17C C96U A107C,-3.77
22,U15C U56A G94A A142G,-0.297
23,U15A A22C C72A C87G G88U G133C,≤ -4.2
24,C14U U78C,-2.43

row,Variant,polymerase ribozyme fitness (log ratio)
1,A16G A24U A73U,-2.25
2,C14U G92C,-1.88
3,C14U U53A,-2.41
4,A16C C96G G140U,≤ -4.2
5,U15G C43U C57A C85G A106C,≤ -4.2
6,C14U U44A,≤ -4.2
7,A16U C85U,-2.1
8,U15C A24C C36U A40U C79G C93G G100A C125G U139C,≤ -4.2
9,A16C A22C C54U A113U,-4.06
10,A17C C116G A138G U144A,≤ -4.2
11,A17C A24U G48C A89G C93G G128U,≤ -4.2
12,U15A C87A A107U C108A,≤ -4.2
13,U15G A37U U56A C57A C123U,-1.55
14,A16U A37C C63U C95U C123A G141U,-4.01
15,A16G A21C G80A C103A U104G,≤ -4.2
16,U15C A17U C51U G83A C123G G152A,-2.38
17,A16U U55A,-2.64
18,A16U A19U A20U A40U G86U C96U,≤ -4.2
19,A16C,-1.01
20,A16U,-1.62
21,A16G,-0.642
22,U15C A52C C85G G94A,0.00508
23,A16U A20C U31G G42C C87G G88C,≤ -4.2
24,U15C A26G U44G C54U C63U C87G U90C,≤ -4.2

row,Variant,polymerase ribozyme fitness (log ratio)
1,A16U A37C A52G G84A G140C,≤ -4.2
2,A16U A22U A37G C72U,-3.87
3,C14U U44A C57A G58C A73U G83C A91U,≤ -4.2
4,A16G A30U G81C C95U A110G,≤ -4.2
5,A16C C87U C118U,-2.27
6,A17C G50U C54U C96G,-1.28
7,A16G G48C A52G,-1.13
8,A17C A30U A60C G62A A66G G84A C118A,≤ -4.2
9,A16U A26G U53C G84C C87A G128C G141A,≤ -4.2
10,A17C U33C G42U U44A U56G,≤ -4.2
11,A16U C93U C116U G117U A121G,-2.05
12,U15C G42U G50U C93G C132A G140A U148C A150U,≤ -4.2
13,U15A C75G C95U A142C,≤ -4.2
14,A16G C38A C76A C85U U134A,-4
15,U15A A20C C76U U82G A91U C118A G140C,≤ -4.2
16,A16C C32A A49U U102G C129G,≤ -4.2
17,A17C C85A,-2.22
18,A17C A22C A73C A91C C95G U101A G143A,≤ -4.2
19,U15A C51U G58U C69G,-1.91
20,U15G C36U A47C C96G U144C,≤ -4.2
21,A16G A21U A97G,-1.74
22,U15A U56A G70A,-4.2
23,U15G C57A A98U U102A A120U A122U,-1.85
24,A16G U31G G46A U55A C95G,≤ -4.2

row,Variant,polymerase ribozyme fitness (log ratio)
1,A16C A19U C57G A73U A91U G140A U145A,≤ -4.2
2,U15G U135G,-3.65
3,U15C C38U G86A C87U C99U,-3.87
4,A17C C54U A73U G94U A106G,-2.62
5,C14U U15C A23U A41U C85A G124U,≤ -4.2
6,A16C A24U C57U,-2.44
7,A16U A20G A37C C95G U102G A113U,≤ -4.2
8,A16U G46C U61A G67C G83C A142C,≤ -4.2
9,A16U A73G A107G A119G,≤ -4.2
10,A16C G48A C51U C96G,-3.07
11,A17C G94A A121U U145A U148C,-1.99
12,U15C U44C U61A G70U G80A C96U,≤ -4.2
13,A16G G48U U109G,-3.48
14,U15G C85A C123U,-0.906
15,A17G A21U A49C G59C G74U C85G,≤ -4.2
16,A17G A19C U55G C87U C93U C108U G141U,≤ -4.2
17,A16C C43A A52C G70A C131U,≤ -4.2
18,A16C A22G U53A G92U,-2.34
19,A16U G50A G92U A98G C132G A142U,≤ -4.2
20,A16C C54U C85A,-3.31
21,A16G G58A C129G,-4.19
22,A16U G84U,-3.5
23,A16U C57A G58U C75G C87A C99U A142C U144C,≤ -4.2
